Broadly, the Kd is the equilibrium constant for the complex coming apart. A word on the koff: it is a measure of how fast the partners let go of each other.

These results are taken from PMC11808123.

For assay [1], the target named is Recombinant CDK2 (human, full length), biotinylated (human) (UniProt P24941). Put plainly: BLI; with 100 nM INX-315. The conditions noted are these: domain or fragment. (In general: BLI is a label-free optical method that tracks binding on a fibre tip over time.)
For assay [2] the target is unchanged. Put plainly: BLI; no drug. Particulars: domain or fragment.

Consider “Recombinant cyclin A (human Cyclin A, residues 173-465)”, for which, in assay [1], the Kd turned out to be 0.24 nM and the off-rate (koff) came out at 5e-05 s⁻¹. Also, in assay [2], the equilibrium dissociation constant (Kd) amounted to 0.57 nM and the off-rate (koff) came to 0.00011 s⁻¹.
